Results reported in IntAct's records for PubMed 24805197.

B1: Sarcoplasmic reticulum histidine-rich calcium-binding protein (Homo sapiens), P23327 (parent)
chain: MGHHRPWLHASVLWAGVASLLLPPAMTQQLRGDGLGFRNRNNSTGVAGLSEEASAELRHHLHSPRDHPDENKDVSTENGHHFWSHPDREKEDEDVSKEYGHLLPGHRSQDHKVGDEGVSGEEVFAEHGGQARGHRGHGSEDTEDSAEHRHHLPSHRSHSHQDEDEDEVVSSEHHHHILRHGHRGHDGEDDEGEEEEEEEEEEEEASTEYGHQAHRHRGHGSEEDEDVSDGHHHHGPSHRHQGHEEDDDDDDDDDDDDDDDDVSIEYRHQAHRHQGHGIEEDEDVSDGHHHRDPSHRHRSHEEDDNDDDDVSTEYGHQAHRHQDHRKEEVEAVSGEHHHHVPDHRHQGHRDEEEDEDVSTERWHQGPQHVHHGLVDEEEEEEEITVQFGHYVASHQPRGHKSDEEDFQDEYKTEVPHHHHHRVPREEDEEVSAELGHQAPSHRQSHQDEETGHGQRGSIKEMSHHPPGHTVVKDRSHLRKDDSEEEKEKEEDPGSHEEDDESSEQGEKGTHHGSRDQEDEEDEEEGHGLSLNQEEEEEEDKEEEEEEEDEERREERAEVGAPLSPDHSEEEEEEEEGLEEDEPRFTIIPNPLDRREEAGGASSEEESGEDTGPQDAQEYGNYQPGSLCGYCSFCNRCTECESCHCDEENMGEHCDQCQHCQFCYLCPLVCETVCAPGSYVDYFSSSLYQALADMLETPEP

Variants of: B1
Settings: with ryr2_mouse Ryr2, E9Q401
Sequence of ryr2_mouse Ryr2, E9Q401 (E9Q401 whole entry): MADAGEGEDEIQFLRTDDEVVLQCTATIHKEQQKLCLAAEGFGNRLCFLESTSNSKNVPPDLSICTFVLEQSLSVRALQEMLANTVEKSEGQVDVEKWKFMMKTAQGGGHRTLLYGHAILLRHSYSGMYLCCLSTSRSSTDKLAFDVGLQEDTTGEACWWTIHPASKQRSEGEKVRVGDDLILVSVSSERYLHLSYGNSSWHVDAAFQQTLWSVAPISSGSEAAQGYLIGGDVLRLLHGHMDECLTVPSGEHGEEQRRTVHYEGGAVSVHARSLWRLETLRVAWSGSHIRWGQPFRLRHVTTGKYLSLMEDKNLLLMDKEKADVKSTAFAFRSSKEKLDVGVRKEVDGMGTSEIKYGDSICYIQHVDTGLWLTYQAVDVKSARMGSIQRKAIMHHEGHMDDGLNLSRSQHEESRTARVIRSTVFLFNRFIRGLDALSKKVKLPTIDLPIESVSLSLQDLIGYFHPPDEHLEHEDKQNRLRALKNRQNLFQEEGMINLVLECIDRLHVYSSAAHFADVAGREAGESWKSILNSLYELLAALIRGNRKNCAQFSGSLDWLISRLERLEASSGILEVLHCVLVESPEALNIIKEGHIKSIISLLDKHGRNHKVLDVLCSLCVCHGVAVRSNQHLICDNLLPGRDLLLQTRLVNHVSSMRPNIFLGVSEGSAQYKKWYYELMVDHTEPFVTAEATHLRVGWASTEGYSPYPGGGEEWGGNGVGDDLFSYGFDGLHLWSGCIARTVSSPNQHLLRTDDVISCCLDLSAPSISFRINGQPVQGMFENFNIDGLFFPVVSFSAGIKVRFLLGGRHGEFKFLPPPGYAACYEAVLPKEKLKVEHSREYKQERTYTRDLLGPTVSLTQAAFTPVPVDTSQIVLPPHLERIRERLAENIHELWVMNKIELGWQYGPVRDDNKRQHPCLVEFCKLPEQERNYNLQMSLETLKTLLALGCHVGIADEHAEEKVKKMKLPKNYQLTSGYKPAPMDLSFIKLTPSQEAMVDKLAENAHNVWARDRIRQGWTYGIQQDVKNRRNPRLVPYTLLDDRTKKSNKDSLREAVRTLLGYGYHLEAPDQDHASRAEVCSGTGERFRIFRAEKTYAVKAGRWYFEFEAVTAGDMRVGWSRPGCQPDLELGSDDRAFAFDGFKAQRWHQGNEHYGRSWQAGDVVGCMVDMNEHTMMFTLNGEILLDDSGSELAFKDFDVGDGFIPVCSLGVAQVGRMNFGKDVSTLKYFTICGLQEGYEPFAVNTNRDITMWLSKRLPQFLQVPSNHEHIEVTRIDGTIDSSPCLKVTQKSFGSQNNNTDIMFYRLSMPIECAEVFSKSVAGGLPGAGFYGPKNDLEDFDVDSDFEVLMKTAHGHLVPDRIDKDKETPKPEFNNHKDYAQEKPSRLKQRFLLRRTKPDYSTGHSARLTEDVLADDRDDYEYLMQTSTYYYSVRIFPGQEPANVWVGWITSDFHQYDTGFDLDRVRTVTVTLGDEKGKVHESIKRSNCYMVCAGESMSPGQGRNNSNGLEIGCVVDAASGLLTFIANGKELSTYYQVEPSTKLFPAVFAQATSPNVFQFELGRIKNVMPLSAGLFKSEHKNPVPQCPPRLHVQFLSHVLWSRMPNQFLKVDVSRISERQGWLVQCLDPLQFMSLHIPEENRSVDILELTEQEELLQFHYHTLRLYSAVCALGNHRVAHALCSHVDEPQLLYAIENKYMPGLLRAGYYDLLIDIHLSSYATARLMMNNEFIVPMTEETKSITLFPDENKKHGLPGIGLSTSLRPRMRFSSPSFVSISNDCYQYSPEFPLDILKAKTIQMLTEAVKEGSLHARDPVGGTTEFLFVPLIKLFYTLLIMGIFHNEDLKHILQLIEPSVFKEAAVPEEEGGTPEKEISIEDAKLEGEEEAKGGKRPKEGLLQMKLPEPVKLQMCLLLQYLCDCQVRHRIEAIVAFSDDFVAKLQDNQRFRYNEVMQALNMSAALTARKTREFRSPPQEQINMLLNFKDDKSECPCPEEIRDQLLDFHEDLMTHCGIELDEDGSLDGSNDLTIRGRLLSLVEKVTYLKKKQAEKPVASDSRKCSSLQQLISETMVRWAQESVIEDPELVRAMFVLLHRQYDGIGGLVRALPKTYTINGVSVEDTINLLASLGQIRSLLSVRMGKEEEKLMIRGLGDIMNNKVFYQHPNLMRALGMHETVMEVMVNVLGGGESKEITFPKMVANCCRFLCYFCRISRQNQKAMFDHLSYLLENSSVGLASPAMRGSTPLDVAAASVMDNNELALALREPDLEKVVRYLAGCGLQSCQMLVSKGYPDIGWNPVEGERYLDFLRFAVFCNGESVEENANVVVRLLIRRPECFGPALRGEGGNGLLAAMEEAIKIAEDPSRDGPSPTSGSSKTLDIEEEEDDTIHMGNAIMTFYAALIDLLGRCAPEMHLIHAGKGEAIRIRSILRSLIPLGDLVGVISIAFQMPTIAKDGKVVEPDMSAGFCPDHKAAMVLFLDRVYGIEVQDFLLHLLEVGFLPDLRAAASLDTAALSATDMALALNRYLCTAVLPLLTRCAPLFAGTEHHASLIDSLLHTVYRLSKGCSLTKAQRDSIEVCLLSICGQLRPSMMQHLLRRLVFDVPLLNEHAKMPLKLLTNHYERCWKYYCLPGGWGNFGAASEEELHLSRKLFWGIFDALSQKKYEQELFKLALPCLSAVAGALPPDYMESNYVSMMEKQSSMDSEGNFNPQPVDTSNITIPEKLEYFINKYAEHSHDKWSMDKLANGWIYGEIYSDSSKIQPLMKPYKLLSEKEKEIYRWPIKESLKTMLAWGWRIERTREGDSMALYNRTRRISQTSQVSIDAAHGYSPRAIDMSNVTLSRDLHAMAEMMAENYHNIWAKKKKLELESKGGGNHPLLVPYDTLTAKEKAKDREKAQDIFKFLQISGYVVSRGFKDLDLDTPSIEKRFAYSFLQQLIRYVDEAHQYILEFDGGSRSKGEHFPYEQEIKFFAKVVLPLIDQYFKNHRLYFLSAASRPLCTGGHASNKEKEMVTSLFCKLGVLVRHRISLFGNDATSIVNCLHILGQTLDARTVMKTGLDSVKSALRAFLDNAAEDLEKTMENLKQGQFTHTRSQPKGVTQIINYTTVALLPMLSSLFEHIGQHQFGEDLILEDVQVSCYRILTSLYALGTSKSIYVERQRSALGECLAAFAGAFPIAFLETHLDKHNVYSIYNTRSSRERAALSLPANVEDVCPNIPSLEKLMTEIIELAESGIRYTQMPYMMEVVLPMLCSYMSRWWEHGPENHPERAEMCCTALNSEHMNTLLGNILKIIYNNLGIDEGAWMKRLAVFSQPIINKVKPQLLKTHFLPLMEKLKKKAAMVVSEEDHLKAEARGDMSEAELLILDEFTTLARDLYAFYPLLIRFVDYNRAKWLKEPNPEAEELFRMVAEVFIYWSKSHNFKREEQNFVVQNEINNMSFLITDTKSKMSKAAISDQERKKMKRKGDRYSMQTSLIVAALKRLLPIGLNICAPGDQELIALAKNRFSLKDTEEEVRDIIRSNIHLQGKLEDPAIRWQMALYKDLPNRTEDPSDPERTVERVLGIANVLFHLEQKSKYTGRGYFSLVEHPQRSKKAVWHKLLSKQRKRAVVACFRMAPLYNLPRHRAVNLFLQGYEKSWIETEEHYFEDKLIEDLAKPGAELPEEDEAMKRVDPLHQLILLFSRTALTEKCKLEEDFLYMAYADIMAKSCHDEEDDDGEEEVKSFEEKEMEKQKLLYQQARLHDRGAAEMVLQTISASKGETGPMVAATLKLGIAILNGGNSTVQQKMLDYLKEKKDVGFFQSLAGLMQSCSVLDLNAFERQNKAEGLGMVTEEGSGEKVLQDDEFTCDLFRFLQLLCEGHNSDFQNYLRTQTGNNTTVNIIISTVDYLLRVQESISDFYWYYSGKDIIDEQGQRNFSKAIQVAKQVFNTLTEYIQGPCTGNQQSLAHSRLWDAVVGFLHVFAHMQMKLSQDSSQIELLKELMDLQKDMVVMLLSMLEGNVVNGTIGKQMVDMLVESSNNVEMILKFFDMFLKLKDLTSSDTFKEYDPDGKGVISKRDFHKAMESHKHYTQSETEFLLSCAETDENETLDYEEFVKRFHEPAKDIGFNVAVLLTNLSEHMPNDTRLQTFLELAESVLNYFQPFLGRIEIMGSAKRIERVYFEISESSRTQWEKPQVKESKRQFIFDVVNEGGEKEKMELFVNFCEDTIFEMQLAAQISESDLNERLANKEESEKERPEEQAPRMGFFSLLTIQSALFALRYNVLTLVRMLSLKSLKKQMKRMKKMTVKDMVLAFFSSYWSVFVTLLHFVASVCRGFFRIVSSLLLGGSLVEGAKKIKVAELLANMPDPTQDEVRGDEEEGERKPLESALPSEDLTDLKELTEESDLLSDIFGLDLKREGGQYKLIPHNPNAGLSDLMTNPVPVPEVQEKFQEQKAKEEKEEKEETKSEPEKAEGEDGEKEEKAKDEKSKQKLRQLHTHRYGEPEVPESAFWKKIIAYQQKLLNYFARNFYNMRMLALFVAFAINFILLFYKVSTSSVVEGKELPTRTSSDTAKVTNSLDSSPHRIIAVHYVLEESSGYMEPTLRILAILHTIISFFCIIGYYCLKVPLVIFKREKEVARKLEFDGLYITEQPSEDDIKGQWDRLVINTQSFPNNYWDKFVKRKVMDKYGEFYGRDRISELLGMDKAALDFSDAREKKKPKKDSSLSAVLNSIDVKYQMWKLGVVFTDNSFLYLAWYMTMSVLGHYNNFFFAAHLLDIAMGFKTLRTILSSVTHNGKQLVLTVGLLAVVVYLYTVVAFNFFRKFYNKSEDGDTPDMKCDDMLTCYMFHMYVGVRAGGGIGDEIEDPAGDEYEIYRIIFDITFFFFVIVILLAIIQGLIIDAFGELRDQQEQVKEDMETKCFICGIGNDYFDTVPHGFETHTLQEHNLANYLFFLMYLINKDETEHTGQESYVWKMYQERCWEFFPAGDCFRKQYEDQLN

Variant | effect of a mutation on the interaction
S96A | decreasing interaction strength
